According to FireProtDB (doi:10.1110/ps.062645007):
Several values for one entry are separate records, joined by “and”; a condition that tells them apart may be missing. Equal values may be shown once.

Settings: Salmonella typhimurium (strain LT2 / SGSC1412 / ATCC 700720); pH 7.4; Thermal; CD; Phosphate 10 mM; transition: 3; whole UniProt chain shown

B1: Cell invasion protein SipD wild type, Q56026 (protein)
chain: MLNIQNYSASPHPGIVAERPQTPSASEHVETAVVPSTTEHRGTDIISLSQAATKIHQAQQTLQSTPPISEENNDERTLARQQLTSSLNALAKSGVSLSAEQNENLRSAFSAPTSALFSASPMAQPRTTISDAEIWDMVSQNISAIGDSYLGVYENVVAVYTDFYQAFSDILSKMGGWLLPGKDGNTVKLDVTSLKNDLNSLVNKYNQINSNTVLFPAQSGSGVKVATEAEARQWLSELNLPNSCLKSYGSGYVVTVDLTPLQKMVQDIDGLGAPGKDSKLEMDNAKYQAWQSGFKAQEENMKTTLQTLTQKYSNANSLYDNLVKVLSSTISSSLETAKSFLQG
- Tm: 75.7 °C and 76.6 °C
